Test results taken from PMC11742849.

Target: recombinant mouse TfR extracellular domain protein (UniProt Q62351)
Test: ELISA
Conditions: ligand concentration 20 nM (est. from x axis); mTfR coated on plate; signal normalized to each construct's own maximum; parent: est. 78; read off a plot

Sequence of UniProt Q62351 (Q62351 89-763): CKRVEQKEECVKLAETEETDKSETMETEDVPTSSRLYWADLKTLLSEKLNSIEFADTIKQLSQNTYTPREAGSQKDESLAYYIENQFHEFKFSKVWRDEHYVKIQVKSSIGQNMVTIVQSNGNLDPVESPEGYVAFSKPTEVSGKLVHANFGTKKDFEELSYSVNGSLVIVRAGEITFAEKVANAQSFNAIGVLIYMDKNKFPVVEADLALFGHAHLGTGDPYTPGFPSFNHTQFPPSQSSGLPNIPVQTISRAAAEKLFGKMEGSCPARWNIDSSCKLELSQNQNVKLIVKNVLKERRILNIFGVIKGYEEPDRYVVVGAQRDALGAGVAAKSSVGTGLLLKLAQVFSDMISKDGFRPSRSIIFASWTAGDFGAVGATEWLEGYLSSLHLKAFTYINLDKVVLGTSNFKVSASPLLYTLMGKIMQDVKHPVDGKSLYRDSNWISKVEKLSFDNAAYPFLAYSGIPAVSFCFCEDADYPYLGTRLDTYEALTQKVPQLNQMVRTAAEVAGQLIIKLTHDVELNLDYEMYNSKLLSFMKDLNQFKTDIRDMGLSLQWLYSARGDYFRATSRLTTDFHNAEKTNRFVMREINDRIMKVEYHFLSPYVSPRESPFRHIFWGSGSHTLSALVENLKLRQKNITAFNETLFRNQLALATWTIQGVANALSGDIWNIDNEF

| Substance | response (% of own maximum OD450) |
| --- | --- |
| scFc-scFv8D3 S101A | 39 |
| scFc-scFv8D3 H102A | 17 |
| scFc-scFv8D3 Y103F | 24 |
| scFc-scFv8D3 T100V | 26 |
